According to patent US20160003843A1 (published 2016):
Ends that are not written are not given here.

Key:
[1] = molecular target: Ala mutant peptide (Ala at position 8 of …); assay: competition phage ELISA; Asp8 to Ala peptide as soluble competitor
[2] = molecular target: T1, unphosphorylated Thr peptide (Thr at position 8 of …); assay: competition phage ELISA; Asp8 to Thr peptide as soluble competitor
T1 sequence (chain, enzymatically biotinylated on the biotin acceptor peptide (BirA)): KGNYVVTTH

[3] = molecular target: Tyr mutant peptide (Tyr at position 8 of …); assay: competition phage ELISA; Asp8 to Tyr peptide as soluble competitor
[4] = molecular target: T2, unphosphorylated Ser peptide (Ser at position 8 of …) (also: fused to NusA, biotinylated on biotin acceptor peptide (BirA), N-terminal His6 tag); assay: competition phage ELISA; Asp8 to Ser peptide as soluble competitor
T2 construct: also called Ser/Thr (Ser member); not shown: N-terminal His6 tag and biotin acceptor peptide; NusA, fusion partner
T2 chain: KGNYVVTSH
Excerpt: Without being bound by theory, the carboxylate group of Asp8 residue might mimic a phosphorylated residue and thus, the Ab can bind peptides with pSer, pThr, or possibly pTyr in place of Asp8 (Table 5).
Various concentrations of Fab-phage were mixed with a fixed concentration of biotinylated peptide and captured on the NeutrAvidin-coated wells for fifteen minutes. The bound phage were then detected using a horseradish peroxidase (HRP)-conjugated anti-M13 monoclonal (GE Healthcare). For phage competition ELISAs, plates were coated with 10 μg/mL NusA-[…] (the native target for the 1i8i Fab and a weak binder to pSAb, pSTAb, and pYAb), and blocked with 2% BSA. Sub-saturating levels of phage were then pre-bound to the various peptide antigens for two hours at 20° C. and then captured on the NusA-peptide coated plates for fifteen minutes. […] Bound scFv-Fc were detected with HRP-conjugated Protein A (Pierce).

[5] = molecular target: T3, wild-type peptide KGNYVVTDH (NusA-KGNYVVTDH) (also: fused to NusA, biotinylated on biotin acceptor peptide (BirA), N-terminal His6 tag); assay: SPR (Biacore 4000); biotinylated antigen captured on NeutrAvidin CM5 chip, Fab in flow; 1:1 Langmuir fit
T3 construct: also called WT Asp; the native target for the 1i8i Fab; not shown: N-terminal His6 tag and biotin acceptor peptide; NusA, fusion partner
T3 chain: KGNYVVTDH
Protocol: Surface plasmon resonance data were measured on a Biacore model 4000 (Biacore, Uppsala, Sweden). All proteins were in TBS containing 0.1 mg/mL BSA and 0.01% Tween-20. A Biacore CM5 chip was coated with NeutrAvidin at 3000 RU and biotinylated antigens were captured at <100 RU.

fold less binding than to the wild-type Asp8 peptide [1]: > 100 fold | fold less binding than to the wild-type Asp8 peptide [2]: > 100 fold | fold less binding than to the wild-type Asp8 peptide [3]: > 100 fold | fold less binding than to the wild-type Asp8 peptide [4]: > 100 fold | Kd [5]: 9.6 nM | koff [5]: 0.0032 s⁻¹ | kon [5]: 338000 M⁻¹ s⁻¹
B1: humanized Fab (humanized version of the mouse 1i8i Fab; parent scaffold, CDR H2 loop STGGYN) (Fab, V domains shown)
VH: EVQLVESGGGLVQPGGSLRLSCVTSGFTFRKFGMSWVRQAPGKGLEWVASISTGGYNTYYSDSVKGRFTISRDNSKNTLYLQMNSLRAEDTAVYYCTRGYSSTSYAMDYWGQGTLVTVSS
VL: DIVLTQSPATLSLSPGERATLSCMTSTDIDDDMNWYQQKPGQAPRLLISEGNTLRPGVPARFSGSGSGTDFTLTISSLEPEDFAVYYCLQSFNVPLTFGQGTKVEIKR
notes: also called parent Fab; humanized scaffold
